Experimental data: PMC2841635

Molecular target: purified tagged Ack1 (HA-tagged Ack1 in methods and Fig. S1B; Myc-tagged Ack1 in the results) (UniProt Q07912)
Experiment: co-IP; in vitro binding assay: 50 nM of purified Ack and AKT in mRLB (25 mM Tris pH 7.5, 175 mM NaCl, 1% Triton X-100, 10% glycerol), 30 mins at room temperature, then anti-Ack1 antibodies and Protein-A-sepharose overnight at 4°C; IB with anti-AKT antibody

UniProt Q07912, sequence (Q07912 whole entry): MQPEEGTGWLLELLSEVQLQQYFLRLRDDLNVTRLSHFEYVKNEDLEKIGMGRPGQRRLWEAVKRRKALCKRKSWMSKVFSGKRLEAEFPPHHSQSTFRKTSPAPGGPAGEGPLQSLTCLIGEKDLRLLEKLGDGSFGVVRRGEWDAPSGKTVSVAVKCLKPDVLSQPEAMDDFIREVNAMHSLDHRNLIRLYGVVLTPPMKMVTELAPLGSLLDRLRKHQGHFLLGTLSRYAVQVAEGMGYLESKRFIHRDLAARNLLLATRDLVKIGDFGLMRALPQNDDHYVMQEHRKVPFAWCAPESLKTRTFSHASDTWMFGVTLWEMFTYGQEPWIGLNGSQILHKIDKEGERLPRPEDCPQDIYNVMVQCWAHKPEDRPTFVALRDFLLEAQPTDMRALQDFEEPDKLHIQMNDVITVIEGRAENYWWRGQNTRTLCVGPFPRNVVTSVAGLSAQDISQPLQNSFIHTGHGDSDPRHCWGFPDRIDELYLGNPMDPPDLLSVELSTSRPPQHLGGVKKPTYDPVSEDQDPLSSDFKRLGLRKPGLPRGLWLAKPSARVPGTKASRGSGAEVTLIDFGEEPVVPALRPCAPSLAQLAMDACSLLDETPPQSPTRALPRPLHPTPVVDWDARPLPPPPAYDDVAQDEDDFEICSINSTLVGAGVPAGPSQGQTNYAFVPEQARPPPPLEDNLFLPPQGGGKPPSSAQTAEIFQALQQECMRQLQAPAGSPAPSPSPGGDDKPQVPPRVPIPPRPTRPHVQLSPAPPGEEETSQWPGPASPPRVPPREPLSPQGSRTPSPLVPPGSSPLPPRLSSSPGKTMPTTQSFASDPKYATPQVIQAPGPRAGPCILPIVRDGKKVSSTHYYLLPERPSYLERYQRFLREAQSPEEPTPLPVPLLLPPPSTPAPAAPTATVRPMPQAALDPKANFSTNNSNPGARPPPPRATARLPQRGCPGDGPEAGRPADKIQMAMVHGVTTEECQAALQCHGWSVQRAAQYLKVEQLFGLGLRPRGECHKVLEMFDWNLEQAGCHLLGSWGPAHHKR

percent of total AKT in complex with Ack1: 6.35%
Substance: HA-tagged AKT expressed in HEK293T/HEK293 cells (from UniProt P31749 1-480) (enzyme)
